Changes are numbered by the printed parent chain. In names and notes the source's numbering stands. Blank lines part the entries; values can stand above or below the binder they belong to.
Key:
human CLDN3 = biological target: T1, human CLDN3 (human, UniProt O15551 1-220); experiment: FACS on HEK293 cells transiently expressing human CLDN3
T1 construct: whole, on cells; also called hCLDN3
T1 sequence (looked up): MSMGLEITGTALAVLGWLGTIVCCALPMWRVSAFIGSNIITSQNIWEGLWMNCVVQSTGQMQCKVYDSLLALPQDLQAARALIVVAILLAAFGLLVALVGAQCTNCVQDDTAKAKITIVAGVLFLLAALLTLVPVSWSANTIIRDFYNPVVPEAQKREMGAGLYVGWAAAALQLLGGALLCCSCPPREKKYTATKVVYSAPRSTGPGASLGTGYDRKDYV
Procedure: (§1) Antibodies were assayed for binding affinity to human CLDN18.2 paralogous proteins by FACS (ACEA NovoCyte). CLDN1, CLDN2, CLDN3, CLDN4, CLDN6 and CLDN9 genes of the human CLDN18.2 paralogous family were transiently transfected into HEK293 cells. […] The cell density was adjusted to 10⁶ cells/mL, and 50 μL of the cell suspension was added to each well of a 96-well plate. An antibody was diluted to 60 nM with FACS buffer, and 50 μL of the antibody dilution was added to each well of the 96-well plate. After 2 h of incubation at 4° C., the plate was washed twice with FACS buffer. Then, an FACS buffer containing a secondary antibody was added. After 1 h of incubation at 4° C., the plate was washed twice with FACS buffer. The cells were resuspended in fixative solution, and run FACS.

human CLDN18.2 [1] = biological target: T2, human CLDN18.2 (human); experiment: FACS on NUGC4_D8 cells
T2 construct: the HEK293 line was made with a GenScript plasmid; also called hCLDN18.2
Procedure: (§2) Antibodies were assayed for binding affinity by FACS. Test cells include HEK293/hCLDN18.2, HEK293/hCLDN18.1, NUGC4_D8 and Jurkat cells. […] The cell density was adjusted to 10⁶ cells/mL, and 50 μL of the cell suspension was added to each well of a 96-well plate. Antibodies were diluted to different concentrations with FACS buffer, and 50 μL of the antibody dilution was added to each well of the 96-well plate. After 2 h of incubation at 4° C., the plate was washed twice with FACS buffer. […] After 1 h of incubation at 4° C., the plate was washed twice with FACS buffer. The cells were resuspended in fixative solution, and then the fluorescence of the cells was monitored using an FACS instrument (ACEA NovoCyte).

[2] = biological target: T3, Biotinylated murine CD3E&D (murine, UniProt P22646 22-108; P04235 22-105, biotin label); experiment: BLI (Octet), biotinylated CD3 on SA sensor
T3 construct: also called CDD-M82W5
Procedure: The binding kinetics between proteins and antibodies was analyzed by the Biolayer Interferometry (BLI) technique using an Octet Red 96e (Fortebio) system. Human CD3E (Acro, CDE-H5223), cynomolgus CD3E (Acro, CDE-C5226) and murine CD3E (Acro, CDE-M5256) were mixed with biotin (Thermo Scientific, A39257) in a molar ratio of 1:3. The mixture was incubated at 4° C. overnight, and then excess biotin was removed to obtain biotinylated CD3E. The rotation speed was set at 1000 rpm for the system. […] After being equilibrated in the buffer for 120 s, the SA sensor with captured CD3 was allowed to bind to 2-fold serially diluted antibodies. […] Finally, the SA sensor was immersed in a 10 mM glycine-hydrochloric acid solution at pH 1.5 for regeneration to elute the antibodies bound to the sensor. […] For the interactions of fast binding and fast dissociation, the “steady state” method was selected to fit the data to obtain KD(M) values.

human CLDN2 = biological target: T4, human CLDN2 (human, UniProt P57739 1-230); experiment: FACS on HEK293 cells transiently expressing human CLDN2
T4 construct: whole, on cells; also called hCLDN2
T4 sequence (looked up): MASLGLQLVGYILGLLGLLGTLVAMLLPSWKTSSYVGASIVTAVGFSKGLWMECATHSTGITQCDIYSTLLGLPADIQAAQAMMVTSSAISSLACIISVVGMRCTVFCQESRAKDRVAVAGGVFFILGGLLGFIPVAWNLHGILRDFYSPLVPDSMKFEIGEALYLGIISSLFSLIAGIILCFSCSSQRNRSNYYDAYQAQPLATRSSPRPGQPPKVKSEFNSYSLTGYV
Procedure: as §1

human CLDN18.2 [3] = biological target: T2, human CLDN18.2; experiment: competition FACS on HEK293/hCLDN18.2 cells; competitor 10 nM biotinylated PR000400
Procedure: (§3) This example is to study the binding of anti-human CLDN18.2 bispecific antibodies to the epitope region of a human CLDN18.2 antigen. Competitive binding experiments were performed at the cellular level using human CLDN18.2-overexpressing HEK293/hCLDN18.2 cells. […] The mixture was well mixed and incubated at 4° C. for 30 min. 25 μL of the corresponding serially diluted non-biotinylated anti-human CLDN18.2 antibody was added. The mixture was well mixed and incubated at 4° C. for 1 h. The cells in each well were washed twice with 200 μL of pre-cooled FACS buffer (2% BSA in DPBS) and centrifuged at 500 g at 4° C. for 5 min, and then the supernatant was discarded. A fluorescent secondary antibody (Jackson ImmunoResearch, 016-540-084, 1:500) was added. The mixture was incubated at 4° C. in the absence of light for 1 h. The cells in each well were washed twice with 200 μL of pre-cooled FACS buffer (2% BSA in DPBS) and centrifuged at 500 g at 4° C. for 5 min, and then the supernatant was discarded. Finally, the cells in each well were resuspended in 200 μL of pre-cooled FACS buffer, and the fluorescence signal values were read using a ACEA_NovoCyte.

human CLDN6 = biological target: T5, human CLDN6 (human, UniProt P56747 1-220); experiment: FACS on HEK293 cells transiently expressing human CLDN6
T5 construct: whole, on cells; also called hCLDN6
T5 sequence (looked up): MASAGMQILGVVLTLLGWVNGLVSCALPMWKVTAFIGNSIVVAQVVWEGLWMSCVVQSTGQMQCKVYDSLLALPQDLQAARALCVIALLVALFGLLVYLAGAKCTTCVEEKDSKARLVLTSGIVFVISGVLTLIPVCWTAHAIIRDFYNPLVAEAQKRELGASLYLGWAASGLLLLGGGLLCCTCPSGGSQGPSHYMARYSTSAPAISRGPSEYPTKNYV
Procedure: as §1

Human CD32a(H) = biological target: T6, Human CD32a(H) (human, UniProt P12318 36-218, limits assumed); experiment: BLI (Octet), antibody on FAB2G sensor
T6 sequence (looked up): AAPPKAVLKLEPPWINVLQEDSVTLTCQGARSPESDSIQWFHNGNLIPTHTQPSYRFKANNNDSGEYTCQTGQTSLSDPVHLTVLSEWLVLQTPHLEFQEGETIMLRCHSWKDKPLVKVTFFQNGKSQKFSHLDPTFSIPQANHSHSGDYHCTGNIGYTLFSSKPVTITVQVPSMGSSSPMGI
Procedure: (§4) The binding kinetics between proteins and antibodies was analyzed by the Biolayer Interferometry (BLI) technique using an Octet Red 96e (Fortebio) system. The rotation speed was set at 1000 rpm for the system. […] After equilibrated in the buffer for 120 s, the FAB2G sensor was allowed to bind to 2-fold serially diluted human Fc receptor protein. Finally, the FAB2G sensor was immersed in a 10 mM glycine-hydrochloric acid solution at pH 1.5 for regeneration to elute the proteins bound to the sensor. The affinity assays of antibodies for FcRn were performed under the conditions of both pH 6.0 buffer and pH 7.4 buffer. […] For the interactions of fast binding and fast dissociation, the “steady state” method was selected to fit the data to obtain KD(M) values.

Human CD16a(F) = Human CD16a(F) (human, UniProt P08637 17-208); experiment: BLI (Octet), antibody on FAB2G sensor
Procedure: as §4

Human CD64 = biological target: T7, Human CD64 (human, UniProt P12314 16-288, limits assumed); experiment: BLI (Octet), antibody on FAB2G sensor
T7 construct: bought recombinant protein
Procedure: as §4

Human CD16a(V) = Human CD16a(V) (human, UniProt P08637 17-208); experiment: BLI (Octet), antibody on FAB2G sensor
Procedure: as §4

Human CD32b = biological target: T8, Human CD32b (human, UniProt P31994 46-217, limits assumed); experiment: BLI (Octet), antibody on FAB2G sensor
T8 sequence (looked up): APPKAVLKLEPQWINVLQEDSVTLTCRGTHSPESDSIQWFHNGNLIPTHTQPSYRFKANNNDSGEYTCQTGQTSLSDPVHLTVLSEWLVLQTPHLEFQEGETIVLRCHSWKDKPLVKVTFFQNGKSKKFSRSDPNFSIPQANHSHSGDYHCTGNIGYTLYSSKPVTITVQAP
Procedure: as §4

[4] = biological target: CLDN18.2 of SNU620 cells (methionine to leucine at amino acid 149) (human, UniProt P56856-2 1-261); experiment: cell-based or functional assay
human CLDN18.2 [5] = biological target: T2, human CLDN18.2; experiment: cell-based or functional assay
human CLDN18.2 [6] = biological target: T2, human CLDN18.2; experiment: FACS on HEK293/hCLDN18.2 cells
Procedure: as §2

human CLDN4 = biological target: T9, human CLDN4 (human, UniProt O14493 1-209); experiment: FACS on HEK293 cells transiently expressing human CLDN4
T9 construct: whole, on cells; also called hCLDN4
T9 sequence (looked up): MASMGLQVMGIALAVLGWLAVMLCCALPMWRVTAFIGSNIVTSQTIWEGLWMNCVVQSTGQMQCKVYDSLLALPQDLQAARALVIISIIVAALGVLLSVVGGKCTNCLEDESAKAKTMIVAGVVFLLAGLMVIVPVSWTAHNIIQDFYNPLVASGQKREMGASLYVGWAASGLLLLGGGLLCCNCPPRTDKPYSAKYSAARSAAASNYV
Procedure: as §1

human CLDN1 = biological target: T10, human CLDN1 (human, UniProt O95832 1-211); experiment: FACS on HEK293 cells transiently expressing human CLDN1
T10 construct: whole, on cells; also called hCLDN1
T10 sequence (looked up): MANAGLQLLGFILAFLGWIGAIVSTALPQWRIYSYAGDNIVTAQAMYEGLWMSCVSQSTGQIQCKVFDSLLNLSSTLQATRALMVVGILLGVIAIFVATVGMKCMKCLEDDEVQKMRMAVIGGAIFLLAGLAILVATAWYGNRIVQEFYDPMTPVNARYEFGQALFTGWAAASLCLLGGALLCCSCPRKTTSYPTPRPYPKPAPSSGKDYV
Procedure: as §1

human CLDN18.2 [7] = biological target: T2, human CLDN18.2; experiment: competition FACS on HEK293/hCLDN18.2 cells; competitor 200 nM biotinylated PR004549
Procedure: as §3

Human CD16a(F), sequence (P08637 17-208 limits assumed): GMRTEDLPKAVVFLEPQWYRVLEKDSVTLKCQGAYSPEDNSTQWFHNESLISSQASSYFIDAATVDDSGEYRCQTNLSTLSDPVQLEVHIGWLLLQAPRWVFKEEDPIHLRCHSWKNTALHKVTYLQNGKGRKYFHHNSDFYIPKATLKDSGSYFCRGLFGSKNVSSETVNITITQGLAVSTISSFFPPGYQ
T7 sequence (P12314 16-288 limits assumed): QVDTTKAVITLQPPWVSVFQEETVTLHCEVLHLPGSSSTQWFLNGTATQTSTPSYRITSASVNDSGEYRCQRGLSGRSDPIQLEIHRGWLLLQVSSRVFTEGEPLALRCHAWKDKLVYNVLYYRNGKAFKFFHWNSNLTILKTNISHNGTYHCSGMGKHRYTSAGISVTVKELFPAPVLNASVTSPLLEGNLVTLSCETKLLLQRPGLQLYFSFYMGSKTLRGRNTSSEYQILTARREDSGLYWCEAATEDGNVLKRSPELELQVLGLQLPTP
Human CD16a(V), sequence (P08637 17-208 F176V limits assumed): as the sequence (P08637 17-208 limits assumed) above, with F160V counted along it
CLDN18.2 of SNU620 cells (methionine to leucine at amino acid 149), sequence (P56856 other isoform, or with tags, fused parts or gaps limits assumed): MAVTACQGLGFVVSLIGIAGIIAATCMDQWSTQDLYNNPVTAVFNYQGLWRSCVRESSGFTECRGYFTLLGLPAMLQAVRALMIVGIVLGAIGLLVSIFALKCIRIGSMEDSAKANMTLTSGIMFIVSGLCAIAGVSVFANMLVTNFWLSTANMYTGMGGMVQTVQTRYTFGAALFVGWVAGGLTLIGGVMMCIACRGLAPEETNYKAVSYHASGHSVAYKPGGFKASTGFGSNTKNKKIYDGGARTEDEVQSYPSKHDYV
T3 sequence (P22646 22-108, chain 1 of 2): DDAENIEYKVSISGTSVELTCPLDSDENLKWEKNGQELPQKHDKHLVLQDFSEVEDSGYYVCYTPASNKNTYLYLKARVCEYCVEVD
T3 sequence (P04235 22-105, chain 2 of 2): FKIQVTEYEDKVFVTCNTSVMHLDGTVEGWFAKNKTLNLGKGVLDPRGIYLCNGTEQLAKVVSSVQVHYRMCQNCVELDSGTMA

binding result (human CLDN3): no binding | EC50 (human CLDN18.2 [1]): 70.1 nM | binding result [2]: no binding (tested: 120-7.5 nM) | binding result (human CLDN2): no binding | IC50 (human CLDN18.2 [3]): 87.7 nM | Maximum inhibition rate (%) (human CLDN18.2 [3]): 97.7% | binding result (human CLDN6): no binding | binding result (Human CD32a(H)): no binding (tested: 10000-625 nM) | binding result (Human CD16a(F)): no binding (tested: 10000-625 nM) | binding result (Human CD64): no binding (tested: 800-50 nM) | binding result (Human CD16a(V)): no binding (tested: 6000-375 nM) | binding result (Human CD32b): no binding (tested: 10000-625 nM) | TDCC, Titer EC50 (pM), SNU620 [4]: 113 pM | TDCC, Titer EC50 (pM), NUGC4_D8 (human CLDN18.2 [5]): 185 pM | EC50 (human CLDN18.2 [6]): 11.5 nM | binding result (human CLDN4): no binding | binding result (human CLDN1): no binding | IC50 (human CLDN18.2 [7]): 70.8 nM | Maximum inhibition rate (%) (human CLDN18.2 [7]): 48.1%
B1: PR006292 (bispecific antibody, human IgG1, lambda)
chain: EVQLVESGGGLVQPGGSLRLSCAASGFTFSSYWMHWVRQVPGKGLVWVSRISSDASRTIYADSVKGRFTISRDNAKNTLYLQMNSLRAEDTAVYYCARGEDHDILTGYPIRGQGTTVTVSSGGGGSGGGGSGGGGSEVQLVESGGGLVQPGGSLRLSCAASGFTFSSYWMHWVRQVPGKGLVWVSRISSDASRTIYADSVKGRFTISRDNAKNTLYLQMNSLRAEDTAVYYCARGEDHDILTGYPIRGQGTTVTVSSASEPKSSDKTHTCPPCPAPEAAGAPSVFLFPPKPKDTLMISRTPEVTCVVVDVSHEDPEVKFNWYVDGVEVHNAKTKPREEQYNSTYRVVSVLTVLHQDWLNGKEYKCKVSNKALPAPIEKTISKAKGQPREPQVCTLPPSREEMTKNQVSLSCAVKGFYPSDIAVEWESNGQPENNYKTTPPVLDSDGSFFLVSKLTVDKSRWQQGNVFSCSVMHEALHNHYTQKSLSLSPGK
heavy: EVQLVESGGGLVQPGGSLKLSCAASGFTFSTYAMNWVRQASGKGLEWVGRIRSKYNNYATYYADSVKDRFTISRDDSKNTAYLQMNSLKTEDTAVYYCTRHGNFGNSYVSWFAYWGQGTLVTVSSASTKGPSVFPLAPSSKSTSGGTAALGCLVKDYFPEPVTVSWNSGALTSGVHTFPAVLQSSGLYSLSSVVTVPSSSLGTQTYICNVNHKPSNTKVDKKVEPKSCDKTHTCPPCPAPEAAGAPSVFLFPPKPKDTLMISRTPEVTCVVVDVSHEDPEVKFNWYVDGVEVHNAKTKPREEQYNSTYRVVSVLTVLHQDWLNGKEYKCKVSNKALPAPIEKTISKAKGQPREPQVYTLPPCREEMTKNQVSLWCLVKGFYPSDIAVEWESNGQPENNYKTTPPVLDSDGSFFLYSKLTVDKSRWQQGNVFSCSVMHEALHNHYTQKSLSLSPGK
light: QAVVTQEPSLTVSPGGTVTLTCRSSTGAVTTSNYANWVQQKPGQAPRGLIGGTNKRAPWTPARFSGSLLGDKAALTLLGAQPEDEAEYFCALWYSNLWVFGGGTKLTVLGQPKAAPSVTLFPPSSEELQANKATLVCLISDFYPGAVTVAWKADSSPVKAGVETTTPSKQSNNKYAASSYLSLTPEQWKSHRSYSCQVTHEGSTVEKTVAPTECS
notes: structure 1; CD3 Fab from PR003886, CLDN18.2 VH from PR007245; IgG1 knob/hole, AAA (L234A, L235A, G237A)

binding result (human CLDN3): no binding | EC50 (human CLDN18.2 [1]): 51.4 nM | binding result [2]: no binding (tested: 120-7.5 nM) | binding result (human CLDN2): no binding | IC50 (human CLDN18.2 [3]): 103 nM | Maximum inhibition rate (%) (human CLDN18.2 [3]): 97.8% | binding result (human CLDN6): no binding | binding result (Human CD32a(H)): no binding (tested: 10000-625 nM) | binding result (Human CD16a(F)): no binding (tested: 10000-625 nM) | binding result (Human CD64): no binding (tested: 800-50 nM) | binding result (Human CD16a(V)): no binding (tested: 6000-375 nM) | binding result (Human CD32b): no binding (tested: 10000-625 nM) | TDCC, Titer EC50 (pM), SNU620 [4]: 57.1 pM | TDCC, Titer EC50 (pM), IM95 (human CLDN18.2 [5]): 938 pM | TDCC, Titer EC50 (pM), NUGC4_D8 (human CLDN18.2 [5]): 57.9 pM | EC50 (human CLDN18.2 [6]): 14.4 nM | binding result (human CLDN4): no binding | binding result (human CLDN1): no binding | IC50 (human CLDN18.2 [7]): 56.7 nM | Maximum inhibition rate (%) (human CLDN18.2 [7]): 48.5%
B2: PR006384 (bispecific antibody, human IgG1, lambda)
chain: B1 chain with D54T, A55G, D190T, A191G
heavy: B1 heavy
light: B1 light
notes: structure 1; CD3 Fab from PR003886, CLDN18.2 VH from PR007246; AAA

Reference: patent US20250340631A1 (HARBOUR BIOMED SHANGHAI, published 2025)
